Literature values in PMC8083718.

Biological target: ACE2 (Homo sapiens) (UniProt Q9BYF1)
Sequence (Q9BYF1 18-740): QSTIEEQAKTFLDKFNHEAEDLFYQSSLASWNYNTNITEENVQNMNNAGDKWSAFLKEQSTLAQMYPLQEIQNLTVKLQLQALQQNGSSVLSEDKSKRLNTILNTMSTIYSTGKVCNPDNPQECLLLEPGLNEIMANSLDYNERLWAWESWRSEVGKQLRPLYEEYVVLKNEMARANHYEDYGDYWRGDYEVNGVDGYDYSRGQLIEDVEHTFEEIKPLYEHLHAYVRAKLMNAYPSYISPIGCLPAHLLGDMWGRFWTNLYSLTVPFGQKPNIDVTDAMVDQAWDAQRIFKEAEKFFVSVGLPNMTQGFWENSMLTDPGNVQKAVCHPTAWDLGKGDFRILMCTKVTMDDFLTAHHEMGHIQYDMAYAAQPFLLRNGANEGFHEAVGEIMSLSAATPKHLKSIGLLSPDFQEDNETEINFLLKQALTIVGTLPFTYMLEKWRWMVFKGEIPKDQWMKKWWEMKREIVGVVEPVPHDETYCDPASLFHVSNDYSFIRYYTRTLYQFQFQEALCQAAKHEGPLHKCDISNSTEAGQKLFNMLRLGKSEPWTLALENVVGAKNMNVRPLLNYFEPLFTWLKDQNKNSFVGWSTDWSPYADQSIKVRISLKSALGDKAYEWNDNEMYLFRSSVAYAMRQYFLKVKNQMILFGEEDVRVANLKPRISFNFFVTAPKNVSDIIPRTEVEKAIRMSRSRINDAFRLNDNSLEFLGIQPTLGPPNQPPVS

spike protein (from UniProt P59594)
Kd: 0.12 nM
